Data taken from the supplement of paper PMC12042874.
± gives the uncertainty stated by the source.

Experiment: amyloid nucleation score (Sup35N fusion, yeast selection) (log enrichment); library NNK3; higher = more nucleation; inactive = no reads after selection
Outline: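 Sup35N was fused to peptides of 20 random codons and expressed in psi-negative yeast, which were induced with 100 μM copper sulfate for 24 hours and then grown on medium lacking adenine and uracil for 7 days at 30°C. Plasmid inserts from input and output were sequenced on Illumina. The nucleation score is the DiMSum log enrichment of output over input reads, centred on the mode score of non-aggregating sequences. Sequences with under 100 input reads were left out, and random libraries had three technical output replicates.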

Substance | amyloid nucleation score
PTDDGLSNRMKQMSGHRVLH | inactive
PTDIGGNPAGPGEFLIGTGW | inactive
PTNWLVFYFCSGYAFNSFED | 3.31 ± 0.074
PTSFQYRCVSI | inactive
PTTKYFLYNIYSFV | 2.02 ± 0.079
PVARRVMDYKAGSRV | inactive
PVDKRTSTAVDRFARAMNCQ | inactive
PVECLDNDQGFLWPEVRVRG | inactive
PVFLCSLLLVPKANSIPGK | inactive
PVGRKLTTFRVNTCLLGYFK | inactive
PVKMGVVLCNKWIYSKGTKN | inactive
PVLNAAVHDNFFTADHIRKK | inactive
PVLSRITFSNSSDRI | inactive
PVVLLSWELMILLWVNSFAL | inactive
PVVQCNLFFVMVYTLGIRCV | -0.579 ± 0.98
PYESHDEGQGNATM | inactive
PYFIPYCV | inactive
PYGICNLKF | inactive
PYGLLQFNG | inactive
PYIRNYSCSGSNQYLWDTSD | inactive
PYLLAVNRGESSSSVWLMPM | inactive
PYSNTKGANELQSYRRYVVS | inactive
PYSTFLLCQGLTNYMYSSMS | inactive
PYWIGNIFVEPSSD | inactive
QAIGSKRT | inactive

Substance | amyloid nucleation score
QALPSRLGSAGFDYWPPAMS | -0.039 ± 0.53
QATVISRVYNWAGLSDCVVV | 0.425 ± 0.47
QCCIMAITLDYFASPRYIVR | 0.022 ± 0.52
QCQFYTSMMSAR | inactive
QCRSLITRWGDSVYCLWTK | inactive
QDFKCRRGNY | inactive
QDPLVT | inactive
QDVVNPPLFY | inactive
QELQYLKAGSKF | inactive
QEYSGHATSGAHMRWAYSVE | inactive
QFAKIPIALTSVYRIKDGLY | inactive
QFCVQRFYGVEKKLLTLWGF | 0.088 ± 0.75
QFDLAMMSVVCYVFFMYWFL | inactive
QFFIFFACLVLVVITLT | 2.53 ± 0.07
QFKVLYPGREGDAKCHVGAR | inactive
QFRFSFASYFMRSVSIGWIG | inactive
QGAMVD | inactive
QGDRLENKTLQVLHEKARSR | inactive
QGMALPLTTGGGVNKRTCYG | inactive
QGMSAFYYVYGLKLWLHLLL | inactive
QGVCWLVV | inactive
QHLLYSPIEPIVPSVWDIVD | inactive
QHSFVNSIFSSLGTLRKNLL | inactive
QKAVIGM | inactive
QKEDFIVSLWYRVRLFDRNS | inactive

Substance | amyloid nucleation score
QKESYHY | inactive
QKMCKPVFV | inactive
QKMGRGARKCMQLYVMGKDL | inactive
QKVVFW | inactive
QLCGLAAWDFFCLVGHILKK | 1.23 ± 0.095
QLIVRSGKDSGVLWNLGQYR | inactive
QLNGCYCQFWMMKARTTKFH | 2.86 ± 0.054
QLRACPWYSEVFIEI | inactive
QLVRQMTKGVG | inactive
QMCVVPTTY | inactive
QNGCRLMTCC | inactive
QNPTWC | inactive
QNVGIVYRTST | -0.928 ± 2.5
QNVRLTMLLFRNKVYS | inactive
QPPHKARGACYIRVFYRCTG | 0.226 ± 0.68
QPWFMEVL | inactive
QQHRSALRVQVHRVCGNSVI | inactive
QQIFRDNCPVGSRFIFLSR | inactive
QQNQVSIDGCWV | inactive
QQRHMLS | 0.294 ± 0.25
QQVVSLEGRRTKVTLTYQGS | 1.04 ± 0.11
QRFVSIFPGI | inactive
QRMMHFVLCVGFDRGIVPVK | inactive
QRTFG | inactive
QRVMFFCAMSLNKPRSV | inactive

Substance | amyloid nucleation score
QRVWRMMQNLSRW | inactive
QSASHRP | inactive
QSCCKQQILYHRGQTRHQ | inactive
QSDHTLPMCRSSLRICVSGR | 1.75 ± 0.07
QSFGSHYASVMAKY | inactive
QSGSTLTMLQWVIPSDSKLM | inactive
QSLLSVGEWNAQHMSLSSGR | inactive
QSRMLELS | inactive
QSSIHTFCLTLLLSKTYSYQ | inactive
QSSLVDGWKNLTKVRCGDYS | inactive
QSYDL | inactive
QTGCIPNER | 1.05 ± 0.23
QTLFRTLWRFIIITAKQSSD | inactive
QTLRGCSNCRTRVGC | inactive
QTYCYKEMFLITERWIPHSP | -0.155 ± 0.8
QVLCWFISTADLLLAK | inactive
QVPLCHMAGKQNLVSRAQTC | inactive
QVTDEGD | inactive
QWKSSLDWRRCW | inactive
QWLAEGYT | inactive
QWSGDDTT | 0.368 ± 0.22
QYLPGRTVFCMQIYDVQLYP | inactive
QYLTRVHSPEDGTMA | 0.125 ± 0.75
QYRGCG | inactive
QYTCDDSCILFCCASWAEWS | 2.34 ± 0.081

Substance | amyloid nucleation score
QYTFVGDLMVDLITKTVMLM | inactive
RAFLPYYAGYEDRTQSWL | inactive
RAGVVVFIRRLRRLMGTLGA | -0.005 ± 1.1
RAHICSYSFAIYVFVCN | 0.661 ± 0.13
RANSIC | inactive
RAQKVPCVIFSYTWIRSMSD | inactive
RARMV | inactive
RARNTKLCNLSVCMTMGPEA | inactive
RASFVLRCFKIDDVVVQFHL | 1.23 ± 0.15
RASKRLCWSG | inactive
RAYMVGCYDCSSYLDPFSYS | inactive
RAYTDV | inactive
RCFRLIKVLKLLTVFEIITF | inactive
RCLCDPGYCCIFISENWIL | 1.74 ± 0.064
RCLSNN | inactive
RCRCTFYCFRVL | inactive
RCRKHALLFHRCILGYSVLP | inactive
RCSCLTFVVSTK | 0.424 ± 0.75
RCSVVTSFQGICMACKYAGG | 1.26 ± 0.1
RCWNKVFLSYQTELI | inactive
RCYALDFRWLILDVSYHGWG | inactive
